The target in this assay is MSBI1.176 Rep WH1 domain (residues 1-135) (MSBI1.176 (bovine meat and milk factor DNA isolated from a brain sample of a human patient with multiple sclerosis)). Briefly: crystal structure; hanging-drop vapor diffusion at 18°C, 1:1 protein (5 mg/ml in 25 mM Tris-HCl pH 7.6, 300 mM NaCl) and 0.2 M magnesium acetate, 20% PEG 3350; S-SAD phasing; 1.53 Å; one dimer in the asymmetric unit.

The source of these data is paper PMC6503762.

The stoichiometry N is the number of molecules, sites or subunits per partner or assembly. “MSBI1.176 Rep WH1 domain (residues 1-135) (domain or fragment)”: the stoichiometry N is 2.
